T1: Biotin sY51 PSGL-1(42-62) peptide (human, sulfotyrosine at Y51; C-terminal Lys-biotin)
T1 construct: also called Y51(SO3) PSGL-1(42-62)
T1 peptide: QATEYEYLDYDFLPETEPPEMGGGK

T2: Biotin sY46 PSGL-1(42-62) peptide (human, sulfotyrosine at Y46; C-terminal Lys-biotin)
T2 peptide: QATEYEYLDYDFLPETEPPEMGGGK

T3: Biotin Y46,48,51(SO3) PSGL-1(42-62) peptide (human, sulfotyrosine at Y46, Y48 and Y51; C-terminal Lys-biotin)
T3 construct: also called fully sulfated N-terminal PSGL-1 peptide
T3 peptide: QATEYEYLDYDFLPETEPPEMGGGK

T4: Biotin sY48 PSGL-1(42-62) peptide (human, sulfotyrosine at Y48; C-terminal Lys-biotin)
T4 construct: also called sY48S
T4 peptide: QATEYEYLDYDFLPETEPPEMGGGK

T5: Scrambled Y46,48,51(SO3) PSGL-1(42-62) biotin peptide (sulfotyrosine at peptide positions 5, 7 and 10; C-terminal Lys-biotin)
T5 construct: also called scrambled sulfated peptide: biotin
T5 peptide: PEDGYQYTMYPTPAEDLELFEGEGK

B1: 03D07 (antibody, IgG4, V domains shown)
VH: EVKLLESGGGLVQPGGSLRLSCAASGFTFSSYALSWVRQAPGKGLEWVSAISGSGGNTYYADSVKGRFTISRDNSKNTLYLQMNSLRAEDTAVYYCAKVVGATNYWGQGTLVTVSS
VL: DIVMTQTPLSLPVTLGQPASISCRSSQSLVYSDGHTYLSWFHQRPGQSPRRLIYKVSIRDSGVPDRFSGSGSGTDFTLKISRVEAEDVGVYYCMQRLQIPLTFGGGTKVEIK
B2: 20I15 (antibody, V domains shown)
VH: EVKLVESGGGLVQPGGSLSLSCAASGFTFTDYYMSWVRQPPGKALEWLGFIRNKANGYTTEYSASVKGRFTISRDNSQSILYLQMNALRAEDSATYYCARTYLRRGYFDVWGTGTTVTVSS
VL: DIVLTQSPASLAVSLGQRATISCRASKSVSTSGYSYMHWFQQKPGQPPKLLIYLASNLESGVPARFSGSGSGTDFTLNIHPVEEEDAATYYCQHSRELPLTFGAGTKLELK
notes: From mouse immunisation; only variable domains given; also called 20115
B3: 10F01 (antibody, IgG4, V domains shown)
VH: EVQLVQSGGGLVQPGGSLRLSCAASGFTFSSYAMSWVRQAPGKGLEWVSALRGGDGGTYHADSVKGRFTISGDSSKNTLYLQMNSLRAEDTAVYYCARRMVGAAYAFDIWGQGTMVTVSS
VL: LPVLTQPHSVSESPGKTVTISCTRSSGSIADNFVQWYRQRPGSAPTTVIYEGDQRPSGVPGRFSGSIDSSSNSASLTISGLQTDDEADYYCQSFDSYNRRTHVVFGGGTKLTVL

Tests used:
[1] = target: T1, Biotin sY51 PSGL-1(42-62) peptide; assay: capture ELISA; against 3 x sY peptide
Description: (§1) Two ELISA methods were performed. One procedure detected mAb binding to its plate-immobilized target and the other measured the immobilized antibody's ability to capture biotinylated PSGL-1₄₂₋₆₂. […] The plate was incubated for 45 min at 37° C. Plates were washed 3 times with wash buffer (PBS containing 0.05% tween 20, pH 7.4) and a single concentration (2 to 500 nM) or serially diluted (0.002-100 nM) anti-PSGL-1 mAb was added (25 ul/well) in assay buffer into appropriate wells. The plate was incubated for 45 min at 37° C., washed 3 times, and an appropriate HRP-conjugated secondary antibody added (25 ul/well) (HRP goat anti-mouse or anti-human IgG). After 45 min incubation at 37° C., the plate was washed, and antibody bound to plate-immobilized target was determined at A450 nm using HRP substrate (3,3′,5,5′-etramethylbenzidine (TMB)). For each antibody, duplicate values were averaged and assay background was subtracted. Except for the following, ELISAs involving plate-immobilized mAb capturing of biotinylated PSGL-1₄₂₋₆₂ peptides was performed in the same manner as described above: 3 ug/mL/25 ul per well of mAb was coated directly onto microtiter plate wells; biotinylated unmodified or sulfotyrosine PSGL-1₄₂₋₆₂ was serially diluted (3 nM-3 uM) into appropriate wells, and antibody-bound peptide was detected using HRP-streptavidin (Jackson Immunoresearch, Cat. #016-030-084).

[2] = target: T2, Biotin sY46 PSGL-1(42-62) peptide; assay: capture ELISA; against 3 x sY peptide
Description: as §1

[3] = target: T3, Biotin Y46,48,51(SO3) PSGL-1(42-62) …; assay: capture ELISA; against 3 x sY peptide
Description: as §1

[4] = target: T4, Biotin sY48 PSGL-1(42-62) peptide; assay: capture ELISA; against 3 x sY peptide
Description: as §1

[5] = target: T1, Biotin sY51 PSGL-1(42-62) peptide; assay: ELISA, immobilized biotin peptide
How it was run: (§2)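 In this ELISA, half-well high binding plates (Corning Cat. #3690) received 3 ug/mL/25 ul per well of biotin-tagged PSGL-1 peptides covering residues 42 to 62, diluted in PBS, pH 7.4, and coated overnight at 4° C. Duplicate readings for each antibody were averaged and the average assay background was subtracted. PSGL-1 protein or peptide was the positive control.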

[6] = target: T5, Scrambled Y46,48,51(SO3) PSGL-1(42-62) …; assay: ELISA, immobilized biotin peptide
How it was run: as §2

| Binder | EC50/EC50 3x(SO3)Y [1] [fold] | EC50/EC50 3x(SO3)Y [2] [fold] | EC50/EC50 3x(SO3)Y [3] [fold] | EC50/EC50 3x(SO3)Y [4] [fold] | EC50 [5] [nM] | binding result [6] |
| --- | --- | --- | --- | --- | --- | --- |
| B1 | ~5 | 25 | 1 | > 100 | – | – |
| B2 | ~10 | ~10 | 1 | ~10 | 178 | no binding |
| B3 | ~36 | ~2000 | 1 | ~2000 | – | – |
